In patent publication US10844127 one finds Control mAb binding % of wt binding (% of wt binding) data, which are given here for one substance.

One test has as its target HER3 ECD F409A (human) (UniProt P21860). The test can be described thus: FACS, HER3 ECD alanine mutants on cells. (Flow cytometry measures light scatter and fluorescence of single cells or particles in a stream.)
The next test deals with HER3 ECD R426A (human) (UniProt P21860). The test can be described thus: FACS, HER3 ECD alanine mutants on cells.
Sequence of HER3 ECD R426A (human) (P21860 20-643 R426A): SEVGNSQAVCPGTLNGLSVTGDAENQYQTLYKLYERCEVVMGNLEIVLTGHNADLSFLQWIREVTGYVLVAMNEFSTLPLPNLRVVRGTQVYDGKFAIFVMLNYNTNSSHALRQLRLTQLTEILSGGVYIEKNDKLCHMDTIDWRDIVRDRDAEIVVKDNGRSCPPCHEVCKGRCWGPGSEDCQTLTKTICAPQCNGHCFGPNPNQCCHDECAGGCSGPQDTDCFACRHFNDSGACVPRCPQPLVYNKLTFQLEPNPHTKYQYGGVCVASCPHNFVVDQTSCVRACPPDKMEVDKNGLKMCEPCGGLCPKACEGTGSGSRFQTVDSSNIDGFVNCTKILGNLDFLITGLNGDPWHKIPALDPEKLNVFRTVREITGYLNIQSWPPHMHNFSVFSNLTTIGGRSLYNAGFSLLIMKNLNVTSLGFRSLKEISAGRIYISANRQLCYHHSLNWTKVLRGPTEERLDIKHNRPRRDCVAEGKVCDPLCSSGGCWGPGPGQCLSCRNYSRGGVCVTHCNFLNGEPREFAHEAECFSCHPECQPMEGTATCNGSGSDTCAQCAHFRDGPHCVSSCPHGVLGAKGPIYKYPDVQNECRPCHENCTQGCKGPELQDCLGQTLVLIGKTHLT

Sequence of HER3 ECD F409A (human) (P21860 20-643 F409A): as the sequence (P21860 20-643 R426A) above, with F390A, A407R counted along it

control mAb 66223 (antibody): the Control mAb binding % of wt binding (% of wt binding) with HER3 ECD F409A (human) worked out at 79.6; with HER3 ECD R426A (human), 93.1.
